Data on two molecules can be found in US7470669B2, “Isolated polypeptide comprising a leptin fragment” (Serono Genetics Institute, S.A., priority 1999, dated 2008).

One test deals with LSR. The test can be described thus: BUD assay of 125I-LDL in PLC cells transfected with truncated human LSR. The class given is cell-based. Particulars: corrected for total protein, depending on oleate concentration. The source says: Method of Cloning & Testing. • 1. Digest Human LSR plasmids with enzymes of interest under appropriate conditions. Separate the appropriate insert fragment from the vector using agarose gel electrophoresis and Qiaquick gel extraction columns. Note: For constructs 1, 2, 3, 4a, 5, and 6 pTracerCMV2 LSR α was used as the source for the insert. For construct 4b, pTracerCMV2 LSR α′ was used as the source for the insert. For 4c, pTracerCMV2 LSR β was used as the source for the insert. • 2. Digest the pcDNA/HisMax vector in the appropriate reading frame with the enzymes of interest. Purify using agarose gel electrophoresis and Qiaquick gel extraction columns. • 3. If necessary, treat insert fragments with Klenow DNA polymerase or T4 DNA polymerase I to blunt 3′ overhangs. […] Verify correct clones by having them sequenced to ensure that they are in the proper reading frame and that there are no amino acid changes. • 8. […]
BUD Assay Methods: • 1. […] Remove suramin into gamma counter tubes, and count for radioactivity. […] Recover the cell lysates into gamma counter tubes and count for radioactivity. […] After cell lysates have been counted, determine the protein concentration per mL so that data can be reported as ng ^125I-LDL bound/mg of total protein. Protein is determined using the BCA assay from Pierce according to the manufacturer's instructions. […]

In test [1] the test system is bovine brain capillary endothelial cells. As to the kind of experiment: Leptin transcytosis in blood-brain barrier in vitro model. Format: cell-based. Particulars: 10 ng/mL 125I-leptin + 2 mg/mL lactoferrin. How it is done:
Cells were incubated with ^125I-leptin alone (10,000 dpm/ng) (closed squares), with 1 μg/mL unlabelled leptin (triangles), 50 μg/mL MP (circles), 50 μg/mL HP (open squares), or 2 mg/mL lactoferrin (asterisks).
Human leptin transport through the blood-brain barrier (BBB) is studied using an in vitro model (Dehouck, et al J Neurochem 54:1798-801, 1990 hereby incorporated herein by reference in its entirety including any figures, tables, or drawings). This model closely mimics the in vivo situation with regard to the selective passage of nutrients and drugs through the cerebro-vascular endothelium. […] Briefly, this model consists of a co-culture of bovine brain capillary endothelial cells (ECs) and rat astrocytes (FIG. 31). The astrocytes are seeded on the plastic of a six-well dish and grown for 3 weeks. […]
Leptin transcytosis: Experiments were performed on brain capillary endothelial cells in coculture with astrocytes for 16 days. […] At the end of the experiment, the amount of radioactivity of each well was counted. […]
The transport of molecules through the endothelial monolayer was determined for each time point as % passage: % passage of radiolabelled molecule through the endothelium: dpm found in the lower compartment at a time point divided by the initial dpm found in the upper compartment: % transport at 30 min=(lower dpm t30/upper dpm)*100.

The subject of another test is ob/ob mice. As to the kind of experiment: Postprandial plasma TG response after high-fat test meal in ob/ob mice. The class given is in vivo, mouse. Particulars: i.v. 0.5 μg recombinant mouse leptin and/or 2.5 mg lactoferrin, mean ± SD. The protocol:
FIGS. 11A and 11B show the effect of mouse leptin (FIG. 11A) or leptin peptide (FIG. 11B) on postprandial plasma TG response in ob/ob mice. […] Postprandial triglyceridemia was measured as described previously. Each point represents the mean±SEM (A: saline, n=8, leptin, n=7; leptin peptide: saline, n=8, leptin, n=8). […] Primary cultures of rat hepatocytes were incubated 30 min at 37° C. with increasing concentrations of mouse leptin peptide. Oleate (0.5 mM) and ^125I-LDL (20 μg/mL) were added and the cells were incubated 2 h at 37° C. After washing, the amount of 125I-LDL bound to the cell surface was measured as described in the Examples section herein.
Mice that were fasted for 2-3 hours were gavage-fed 300 μL of a test meal consisting of 60% fat (37% saturated, 27% mono-, and 36% polyunsaturated fatty acids), 20% protein and 20% carbohydrate, and providing 56 kcal of energy/kg (1.5 g butter, 1.5 g sunflower oil, 2.5 g nonfat dry milk, 2.5 g sucrose and 3 ml water). […] TG concentrations were determined using a commercially available enzymatic kit with controls included in each assay (Precinorm L, Roche-Boehringer Mannheim; Lyotrol N, BioMérieux).
The inhibition of the intestinal absorption of dietary lipids by leptin was also investigated. […] Blood samples were taken at 2 and 3 h after the test meal, and plasma TG concentrations were measured (see Table, below). […]

B1: C-terminal portion from AA 353 to 541: truncated human LSR construct, AA 353 to 541 (protein, UniProt Q86X29 353-541, looked up, fragment)
chain: PGGYPGDVDRSSSAGGQGSYVPLLRDTDSSVASEVRSGYRIQASQQDDSMRVLYYMEKELANFDPSRPGPPSGRVERAMSEVTSLHEDDWRSRPSRGPALTPIRDEEWGGHSPRSPRGWDQEPAREQAGGGWRARRPRARSVDALDDLTPPSTAESGSRSPTSNGGRSRAYMPPRSRSRDDLYDQDDSR
With B1, the “increase in LDL metabolism” value in the test with LSR was approximately 2 fold.

B2: Lactoferrin: a milk protein that inhibits the removal of dietary lipid by the liver; inhibitor of LSR (protein, UniProt P02788 20-710, looked up)
Lactotransferrin: GRRRSVQWCAVSQPEATKCFQWQRNMRKVRGPPVSCIKRDSPIQCIQAIAENRADAVTLDGGFIYEAGLAPYKLRPVAAEVYGTERQPRTHYYAVAVVKKGGSFQLNELQGLKSCHTGLRRTAGWNVPIGTLRPFLNWTGPPEPIEAAVARFFSASCVPGADKGQFPNLCRLCAGTGENKCAFSSQEPYFSYSGAFKCLRDGAGDVAFIRESTVFEDLSDEAERDEYELLCPDNTRKPVDKFKDCHLARVPSHAVVARSVNGKEDAIWNLLRQAQEKFGKDKSPKFQLFGSPSGQKDLLFKDSAIGFSRVPPRIDSGLYLGSGYFTAIQNLRKSEEEVAARRARVVWCAVGEQELRKCNQWSGLSEGSVTCSSASTTEDCIALVLKGEADAMSLDGGYVYTAGKCGLVPVLAENYKSQQSSDPDPNCVDRPVEGYLAVAVVRRSDTSLTWNSVKGKKSCHTAVDRTAGWNIPMGLLFNQTGSCKFDEYFSQSCAPGSDPRSNLCALCIGDEQGENKCVPNSNERYYGYTGAFRCLAENAGDVAFVKDVTVLQNTDGNNNEAWAKDLKLADFALLCLDGKRKPVTEARSCHLAMAPNHAVVSRMDKVERLKQVLLHQQAKFGRNGSDCPDKFCLFQSETKNLLFNDNTECLARLHGKTTYEKYLGPQYVAGITNLKKCSTSPLLEACEFLRK
Take B2: the “amount of leptin transported” value in test [1] was “significantly inhibited”. Further, the “Plasma TG 2-3 hours after test meal” value in the test with ob/ob mice is 2.02 ± 0.26^¶ mg/mL.
